Measurements taken from US20230313187A1, “MODIFICATIONS OF MAMMALIAN CELLS USING ARTIFICIAL MICRO-RNA TO ALTER THEIR PROPERTIES AND THE COMPOSITIONS OF THEIR PRODUCTS” (DNA TWOPOINTO INC., priority 2020, published 2023).

B1: SEQ ID NO: 598: four-hairpin amiRNA, guides SEQ ID NOs 95, 97, 96, 98 to Cricetulus griseus interferon receptor subunit 1 mRNA (nucleic acid)
chain: ATCTGATCTTCTGAAGAAAATATATTTCTTTTTATTCATAGCTCTTAACTAGTGGTGATAGCAATGTCAGCAGTGCCTTAAAATAACACACAAGAGCCATGTGAAGCCACAGATGATGGCTCTTGCGTGTTATTTTCAAGTAAGGTTGACCATACTCTACTCTAGTTATATTCTTTAGGCACGAATGTGTGTTTAAAAAAAATAAAAACTAGTGGTGATAGCAATGTCAGCAGTGCCTTTAAACAGTAAGTAGTCTCTGGGTGAAGCCACAGATGCCAGAGACTAATTACTGTTTACAAGTAAGGTTGACCATACTCTACTCTAGAGTTGTGTTTTAATGTATATTAATGTTACTAATGTGTTTACTAGTGGTGATAGCAATGTCAGCAGTGCCTTTGGGTGTTAATAAAAAGGCAGGTGAAGCCACAGATGCTGCCTTTTTCTTAACACCCACAAGTAAGGTTGACCATACTCTACTCTAGGTTATTTTTAGTATGATTCTGTAAAAATGAATTAATACTAACTAGTGGTGATAGCAATGTCAGCAGTGCCTTTCATTTTGACATACATACTTGGTGAAGCCACAGATGCAAGTATGTACGTCAAAATGACAAGTAAGGTTGACCATACTCTACTCTAGTCAGTTTTATTGATAGTCTTTTCAGTATTATTGATAATCTT
B2: SEQ ID NO: 599: four-hairpin amiRNA, guides SEQ ID NOs 103, 104, 102, 105 to Cricetulus griseus interferon receptor subunit 2 mRNA (nucleic acid)
chain: ATCTGATCTTCTGAAGAAAATATATTTCTTTTTATTCATAGCTCTTAACTAGTGGTGATAGCAATGTCAGCAGTGCCTAAGACTATCAGCAAGAACCAGGGTGAAGCCACAGATGCCTGGTTCTTACTGATAGTCTCAAGTAAGGTTGACCATACTCTACTCTAGTTATATTCTTTAGGCACGAATGTGTGTTTAAAAAAAATAAAAACTAGTGGTGATAGCAATGTCAGCAGTGCCTTTGAAGATAACTTTGTCCCCGGGTGAAGCCACAGATGCCGGGGACAACGTTATCTTCACAAGTAAGGTTGACCATACTCTACTCTAGAGTTGTGTTTTAATGTATATTAATGTTACTAATGTGTTTACTAGTGGTGATAGCAATGTCAGCAGTGCCTTAAACAACAATGGATCCCCAAAGTGAAGCCACAGATGTTTGGGGATCAATTGTTGTTTCAAGTAAGGTTGACCATACTCTACTCTAGGTTATTTTTAGTATGATTCTGTAAAAATGAATTAATACTAACTAGTGGTGATAGCAATGTCAGCAGTGCCTTTGCTCATGATTGTGAACCAAAGTGAAGCCACAGATGTTTGGTTCACCATCATGAGCACAAGTAAGGTTGACCATACTCTACTCTAGTCAGTTTTATTGATAGTCTTTTCAGTATTATTGATAATCTT

Key:
[1] = system: Cricetulus griseus interferon receptor subunit 1 mRNA; test: Expression of human interferon beta from CHO cells (ELISA), amiRNA to interferon receptor subunit 1; format: cell-based; settings: for Titer: 10-day fed batch
Source text: One multi-hairpin amiRNA, with nucleotide sequence SEQ ID NO: 598, comprised four hairpins; the first hairpin comprised a guide strand with nucleotide sequence SEQ ID NO: 95, immediately followed by a loop with nucleotide sequence SEQ ID NO: 241 and passenger strand with nucleotide sequence SEQ ID NO: 180, the second hairpin comprised a guide strand with nucleotide sequence SEQ ID NO: 97, immediately followed by a loop with nucleotide sequence SEQ ID NO: 241 and passenger strand with nucleotide sequence SEQ ID NO: 182, the third hairpin comprised a guide strand with nucleotide sequence SEQ ID NO: 96, immediately followed by a loop with nucleotide sequence SEQ ID NO: 241 and a passenger strand with nucleotide sequence SEQ ID NO: 181, the fourth hairpin comprised a guide strand with nucleotide sequence SEQ ID NO: 98, immediately followed by a loop with nucleotide sequence SEQ ID NO: 241 and a passenger strand with nucleotide sequence SEQ ID NO: 183. Each of these four guide strand sequences was a 22 base sequence that was an exact reverse complement of a different region within the Cricetulus griseus interferon receptor subunit 1 mRNA (with nucleotide sequence SEQ ID NO: 19. Each passenger strand sequence was complementary to its corresponding guide strand sequence, except that the bases in the passenger strand sequences corresponding to the 5′ base of the guide strand and the twelfth base of the guide strand were changed to be non-complementary.
(§1) Each of the five polynucleotides was a transposon which further comprised a left end comprising a 5′-TTAA-3′ target sequence immediately followed by an ITR with SEQ ID NO: 423 (which is an embodiment of SEQ ID NO: 421) and additional sequence with SEQ ID NO: 417 and a right end comprising SEQ ID NO: 419 immediately followed by an ITR with SEQ ID NO: 424 (which is an embodiment of SEQ ID NO: 422) immediately followed by a 5′-TTAA-3′ target sequence. Each transposon further comprised a gene encoding a glutamine synthetase selectable marker. […] Each transposon further comprised the same promoter operably linked to an open reading frame encoding human interferon beta. […]
(§2) Transposons were co-transfected with mRNA encoding transposase with polypeptide sequence SEQ ID NO: 502 into a CHO host lacking a functional glutamine synthetase gene. […] Interferon beta levels in the culture supernatant were measured using an ELISA assay.
(§3) Table 11. […] Transposons for the expression of human interferon beta were constructed, transfected and expressed as described in Section 6.4.1. The amiRNA SEQ ID NO is shown in column A. Following a 10-day fed batch of duplicate cultures for each sample, the concentration of interferon was measured by ELISA. Measured interferon concentrations in culture supernatants are show in columns B and C. […]

[2] = system: Cricetulus griseus interferon receptor subunit 2 mRNA; test: Expression of human interferon beta from CHO cells (ELISA), amiRNA to interferon receptor subunit 2; format: cell-based; settings: for Titer: 10-day fed batch
Source text: One multi-hairpin amiRNA, with nucleotide sequence SEQ ID NO: 599, comprised four hairpins; the first hairpin comprised a guide strand with nucleotide sequence SEQ ID NO: 103, immediately followed by a loop with nucleotide sequence SEQ ID NO: 241 and passenger strand with nucleotide sequence SEQ ID NO: 188; the second hairpin comprised a guide strand with nucleotide sequence SEQ ID NO: 104, immediately followed by a loop with nucleotide sequence SEQ ID NO: 241 and passenger strand with nucleotide sequence SEQ ID NO: 189; the third hairpin comprised a guide strand with nucleotide sequence SEQ ID NO: 102, immediately followed by a loop with nucleotide sequence SEQ ID NO: 241 and a passenger strand with nucleotide sequence SEQ ID NO: 187; the fourth hairpin comprised a guide strand with nucleotide sequence SEQ ID NO: 105, immediately followed by a loop with nucleotide sequence SEQ ID NO: 241 and a passenger strand with nucleotide sequence SEQ ID NO: 190. Each of these four guide strand sequences was a 22 base sequence that was an exact reverse complement of a different region within the Cricetulus griseus interferon receptor subunit 2 mRNA (with nucleotide sequence SEQ ID NO: 20). Each passenger strand sequence was complementary to its corresponding guide strand sequence, except that the bases in the passenger strand sequences corresponding to the 5′ base of the guide strand and the twelfth base of the guide strand were changed to be non-complementary.
as §1, §2, §3

[3] = control transposon expressed 48 μg/ml
[4] = interferon beta in supernatant, first of duplicate cultures
[5] = interferon beta, second of duplicate cultures

Row | Molecule | Average Titer ([1]; average of duplicate cultures) | interferon beta expression compared with the control transposon [1, 3] | Titer [1, 4] | Titer [1, 5] | Average Titer ([2]; average of duplicate cultures) | interferon beta expression compared with the control transposon [2, 3] | Titer [2, 4] | Titer [2, 5]
1 | B1 | 34.5 µg/mL | a small decrease in interferon beta expression | 22.8 µg/mL | 46.1 µg/mL |  |  |  | 
2 | B2 |  |  |  |  | 99.3 µg/mL | as much as twice the expression levels of interferon beta as the control transposon | 92.9 µg/mL | 105.7 µg/mL
